Laboratory results from publication PMC4538796.

Experiments:
[1] = molecular target: brH (GCN4 basic region/AT-Hook conjugate) (UniProt P03069); experiment: fluorescence anisotropy; details: 20 C; 25 nM DNA; apparent; Anisotropy (given for GAGAH): 20 mM Tris-HCl pH 7.5, 100 mM NaCl, 0.02 mM ZnCl2, 20 C, 25 nM TMR-DNA; EMSA: 75 nM dsDNA, rt (GAGAH), 10% native PAGE, 0.5x TBE …
[2] = molecular target: GAGAH (GAGA zinc finger/AT-Hook conjugate) (UniProt Q08605); experiment: fluorescence anisotropy; details: Zn2+, Anisotropy (given for GAGAH): 20 mM Tris-HCl pH 7.5, 100 mM NaCl, 0.02 mM ZnCl2, 20 C, 25 nM TMR-DNA, EMSA: 75 nM dsDNA, rt (GAGAH), 10% native PAGE, 0.5x TBE …
UniProt Q08605, sequence (Q08605 other isoform, or with tags, fused parts or gaps, change not shown): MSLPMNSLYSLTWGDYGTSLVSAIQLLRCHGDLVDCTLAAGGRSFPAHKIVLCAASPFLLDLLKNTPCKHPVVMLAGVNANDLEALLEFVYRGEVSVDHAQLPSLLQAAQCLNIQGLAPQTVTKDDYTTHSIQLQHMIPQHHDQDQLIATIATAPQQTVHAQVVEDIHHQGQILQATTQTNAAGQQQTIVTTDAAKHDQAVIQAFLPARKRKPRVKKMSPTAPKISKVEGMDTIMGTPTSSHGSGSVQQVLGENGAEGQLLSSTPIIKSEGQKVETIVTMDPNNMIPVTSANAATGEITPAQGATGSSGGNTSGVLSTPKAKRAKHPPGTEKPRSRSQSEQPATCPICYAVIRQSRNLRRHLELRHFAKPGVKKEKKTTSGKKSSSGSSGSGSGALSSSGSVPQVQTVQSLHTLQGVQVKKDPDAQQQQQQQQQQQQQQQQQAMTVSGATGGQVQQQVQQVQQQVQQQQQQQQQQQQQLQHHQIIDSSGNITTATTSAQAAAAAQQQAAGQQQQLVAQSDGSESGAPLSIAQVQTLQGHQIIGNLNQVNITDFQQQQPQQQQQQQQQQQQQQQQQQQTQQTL

Sequence: CGCGTCATAATTGAGAGCGC (double strand) [TMR-AP1hs·AT = TMR-AT·GAGA]
- Kd [1]: 28 nM
- Kd ([2]; 20 C, 25 nM DNA, apparent): 26 nM
- Kd ([2]; excess calf thymus DNA competitor): 42 nM
